Data from publication PMC8648943.

B1: R366E YidC S405C labelled with Atto647N (enzyme)
chain: MDSQRNLLVIALLFVSFMIWQAWEQDKNPQPQAQQTTQTTTTAAGSAADQGVPASGQGKLISVKTDVLDLTINTRGGDVEQALLPAYPKELNSTQPFQLLETSPQFIYQAQSGLTGRDGPDNPANGPRPLYNVEKDAYVLAEGQNELQVPMTYTDAAGNTFTKTFVLKRGDYAVNVNYNVQNAGEKPLEISSFGQLKQSITLPPHLDTGSSNFALHTFRGAAYSTPDEKYEKYKFDTIADNENLNISSKGGWVAMLQQYFATAWIPHNDGTNNFYTANLGNGIAAIGYKSQPVLVQPGQTGAMNSTLWVGPEIQDKMAAVAPHLDLTVDYGWLWFISQPLFKLLKWIHSFVGNWGFSIIIITFIVEGIMYPLTKAQYTSMAKMRMLQPKIQAMRERLGDDKQRICQEMMALYKAEKVNPLGGSFPLLIQMPIFLALYYMLMGSVELRQAPFALWIHDLSAQDPYYILPILMGVTMFFIQKMSPTTVTDPMQQKIMTFMPVIFTVFFLWFPSGLVLYYIVSNLVTIIQQQLIYRGLEKRGLHSREKKKS
modifications: Atto647N (acceptor) on cysteine S405C in the cytoplasmic α-helical hairpin

How the values were obtained:
[1] = molecular target: Pf3 coat protein with single cysteine 47C, tethered by its C-terminal end to the AFM tip through a PEG27-linker (phage Pf3) (UniProt P03623); assay: FD-AFM-based single-molecule force spectroscopy; as a2, contact time 52 ms
[2] = molecular target: Pf3 coat protein with single cysteine 47C, tethered by its C-terminal end to the AFM tip through a PEG27-linker (phage Pf3) (UniProt P03623); assay: FD-AFM-based single-molecule force spectroscopy; as a2, contact time 502 ms
[3] = molecular target: Pf3 coat protein with single cysteine 47C, tethered by its C-terminal end to the AFM tip through a PEG27-linker (phage Pf3) (UniProt P03623); assay: dynamic single-molecule force spectroscopy (DFS) by AFM; as a5, contact time 52 ms
[4] = molecular target: Pf3 coat protein with single cysteine 47C, tethered by its C-terminal end to the AFM tip through a PEG27-linker (phage Pf3) (UniProt P03623); assay: FD-AFM-based single-molecule force spectroscopy; Pf3 tethered through PEG27 to the AFM tip, YidC in supported POPE:POPG membranes on mica; contact time ≈2 ms; pulling velocity 3–4.5 µm s^–1; room temperature; 150 mM KCl, 20 mM HEPES, pH 7.4
[5] = molecular target: Pf3 coat protein with single cysteine 47C, tethered by its C-terminal end to the AFM tip through a PEG27-linker (phage Pf3) (UniProt P03623); assay: dynamic single-molecule force spectroscopy (DFS) by AFM; Pf3 tethered through PEG27 to the AFM tip, YidC in supported POPE:POPG membranes; contact time 2 ms; pulling velocities 1–25 µm s^–1; Bell-Evans fit, k0 = zero-force transition rate of the bond; room temperature
[6] = molecular target: Pf3 coat protein with single cysteine 47C, tethered by its C-terminal end to the AFM tip through a PEG27-linker (phage Pf3) (UniProt P03623); assay: AFM-based single-molecule force spectroscopy (height clamp mode); Pf3 tethered by its C-terminal end through a PEG27-linker to the AFM tip, held ≈5–10 nm above a supported POPE:POPG membrane with YidC for ≈1–2 s; force-time curves; lifetimes fitted with the Bell model; room temperature; 150 mM KCl, 20 mM HEPES, pH 7.4
[7] = molecular target: Pf3-47C labelled with Atto520 (phage Pf3) (UniProt P03623); assay: FRET or BRET; single-molecule FRET on a confocal FCS setup; proteoliposomes with 1 nM YidC S405C-Atto647N (acceptor) mixed with 1 nM Atto520-labelled Pf3-47C (donor); 300 mM NaCl, 20 mM Tris-HCl, pH 7.5; recorded for 360 s

Row | Molecule | fraction of (un-)binding forces >50 pN [1] [%] | mean (un-)binding force [1] [pN] | mean (un-)binding force [4] [pN] | koff [5] [s⁻¹] | also measured
1 | wild-type (wt) YidC insertase from E. coli (from UniProt P25714 1-548) (enzyme) | 48.7 | 47.6 | 29.5 | 0.03 | mean (un-)binding force [2]: 50.8 pN; lifetime of the bond (reciprocal of k0) [3]: 0.5 s; lifetime of the bond (reciprocal of k0) [5]: 33 s; bond lifetime at zero force (t0, Bell model) [6]: 0.32 s; fraction of force-time curves with interaction events [6]: 2 to 4%; koff [6]: 3.1 s⁻¹
2 | wild-type (wt) YidC insertase from E. coli (from UniProt P25714 1-548) | – | – | – | – | koff [3]: 2 s⁻¹
3 | ΔCH2 YidC mutant (residues 399–415 deleted) (from UniProt P25714 1-548) (enzyme) | 22.2 | 41 | 35.4 | – | –
4 | ΔCH2 YidC mutant (residues 399–415 deleted) (from UniProt P25714 1-548) | – | – | – | 0.07 | –
5 | R366E YidC mutant (from UniProt P25714 1-548) (enzyme) | 10.5 | 31.5 | 29.1 | 0.03 | –
6 | B1 | – | – | – | – | FRET events relative to wt YidC within 360 s [7]: 25%
